{
  "source": "paper PMC4215226",
  "about": "“The Chlamydia Effector TarP Mimics the Mammalian Leucine-Aspartic Acid Motif of Paxillin to Subvert the Focal Adhesion Kinase during Invasion*” (The Journal of Biological Chemistry, 2014)",
  "binders": {"B1": {"name": "Cya18-Pax-LD2 (domain or fragment, UniProt P49024 125-186, looked up)", "chain": "KSAEPSPTMTSTSLGSNLSELDRLLLELNAVQHNPPSGFSADEVSRSPSLPNVTGPHYVIPE"}},
  "target": "focal adhesion kinase (FAK) (human (endogenous in HeLa), UniProt Q05397 1-1052)",
  "sequence (Q05397 whole entry)": "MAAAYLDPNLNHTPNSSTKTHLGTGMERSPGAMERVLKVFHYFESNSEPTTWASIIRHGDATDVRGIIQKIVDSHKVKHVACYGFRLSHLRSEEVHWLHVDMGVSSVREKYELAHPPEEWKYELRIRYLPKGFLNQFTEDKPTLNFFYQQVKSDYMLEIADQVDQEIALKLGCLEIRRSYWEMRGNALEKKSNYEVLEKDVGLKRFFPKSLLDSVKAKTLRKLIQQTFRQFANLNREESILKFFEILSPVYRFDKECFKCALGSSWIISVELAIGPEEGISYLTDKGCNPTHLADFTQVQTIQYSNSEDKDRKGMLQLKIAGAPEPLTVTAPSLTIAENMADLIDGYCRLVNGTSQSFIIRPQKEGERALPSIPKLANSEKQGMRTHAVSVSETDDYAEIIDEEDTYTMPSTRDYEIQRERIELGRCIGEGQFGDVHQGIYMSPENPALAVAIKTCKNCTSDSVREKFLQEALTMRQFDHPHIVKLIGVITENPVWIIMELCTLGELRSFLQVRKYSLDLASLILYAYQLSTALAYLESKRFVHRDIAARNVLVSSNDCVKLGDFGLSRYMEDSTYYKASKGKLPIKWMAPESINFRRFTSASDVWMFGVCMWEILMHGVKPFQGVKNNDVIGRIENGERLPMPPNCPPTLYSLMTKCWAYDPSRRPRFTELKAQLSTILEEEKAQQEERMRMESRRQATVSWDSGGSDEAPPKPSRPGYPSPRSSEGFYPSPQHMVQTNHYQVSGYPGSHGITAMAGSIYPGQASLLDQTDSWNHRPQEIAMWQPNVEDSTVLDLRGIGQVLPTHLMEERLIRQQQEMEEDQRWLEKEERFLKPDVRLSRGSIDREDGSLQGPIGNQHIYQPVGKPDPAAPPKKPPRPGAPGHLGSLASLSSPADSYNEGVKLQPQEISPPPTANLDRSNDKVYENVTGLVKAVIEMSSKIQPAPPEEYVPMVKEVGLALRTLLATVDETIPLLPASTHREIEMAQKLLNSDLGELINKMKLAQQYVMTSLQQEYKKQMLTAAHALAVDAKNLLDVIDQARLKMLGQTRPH",
  "assay": "cell-based or functional assay",
  "data": [
    {"binder": "B1", "values": [
      {"measurement": "colocalisation of endogenous pY397-FAK with adhered Δtir EPEC in Cos7 cells expressing TirM-Pax-LD2, increase relative to the TirM-only negative control", "value": 2.4, "unit": "fold"}
    ]}
  ]
}
